The chains are these.
B1: glmS ribozyme (parent)
chain: AUAAAAGCGCCAGAACUACAGAAAUGUAGUUGACGAGGAGGAGGUUUAUCGAAUUUUCGGCGGAUGCCUCCAAA

Settings in all cases: with glucosamine-6-phosphate
The variants in data set [1] derive from B1. Briefly: self-cleavage kobs at 160 uM GlcN6P; higher = faster cleavage; RNA array. The gist of the method: (§1)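 Barcoded glmS ribozyme variants on sequenced MiSeq chips were transcribed in situ by E. coli RNA polymerase and tracked through a hybridised Cy3 probe at 37 °C. Glucosamine-6-phosphate (40 μM to 10 mM) in HEPES/KCl/Mg(OAc)2 buffer was flowed in, and tiles were imaged over ~14 h. Signals were normalised to baseline and to non-cleaving reference variants; per-tile medians were fit to one- or two-exponential decays to give kobs. kcat and KM came from weighted Michaelis–Menten fits across concentrations.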

The variants in data set [2] derive from B1. Briefly: self-cleavage kobs at 2500 uM GlcN6P; higher = faster cleavage; RNA array. In short, it runs like this:
as §1

The variants in data set [3] derive from B1. Kind of data set: self-cleavage kobs at 10000 uM GlcN6P; higher = faster cleavage; RNA array. The gist of the method:
as §1

The variants in data set [4] derive from B1. Kind of data set: self-cleavage kobs at 640 uM GlcN6P; higher = faster cleavage; RNA array. In short, it runs like this:
as §1

Results on 25 variants are retold here after the supplement of paper PMC7125110.

± gives the standard error. This sample holds only a part of the variants without activity.

On to G13U U47G A52C, for which the “self-cleavage kobs at 160 uM GlcN6P” value in data set [1] is under 1e-05 s⁻¹. The “self-cleavage kobs at 2500 uM GlcN6P” value in data set [2] is under 1e-05 s⁻¹.
For U57C G62A, the “self-cleavage kobs at 160 uM GlcN6P” value in data set [1] was under 1e-05 s⁻¹. The “self-cleavage kobs at 10000 uM GlcN6P” value in data set [3] was under 1e-05 s⁻¹.
With G7U G9A, in data set [1], the “self-cleavage kobs at 160 uM GlcN6P” value is under 1e-05 s⁻¹. Further, in data set [4], the “self-cleavage kobs at 640 uM GlcN6P” value is under 1e-05 s⁻¹. For the same variant, the “self-cleavage kobs at 2500 uM GlcN6P” value in data set [2] was under 1e-05 s⁻¹.
As to A6U U45A A53C, the “self-cleavage kobs at 160 uM GlcN6P” value in data set [1] was under 1e-05 s⁻¹. Further, the “self-cleavage kobs at 640 uM GlcN6P” value in data set [4] was found to be 4.01e-05 ± 1.9e-05 s⁻¹. Moreover, in data set [2], the “self-cleavage kobs at 2500 uM GlcN6P” value is 4.74e-05 ± 2.2e-05 s⁻¹.
Turning to A15C A48C, the “self-cleavage kobs at 160 uM GlcN6P” value in data set [1] is under 1e-05 s⁻¹. In addition, the “self-cleavage kobs at 10000 uM GlcN6P” value in data set [3] was determined as 4.99e-05 ± 1.2e-05 s⁻¹.
Consider G32U G63C, for which the “self-cleavage kobs at 160 uM GlcN6P” value in data set [1] is under 1e-05 s⁻¹. Also, the “self-cleavage kobs at 640 uM GlcN6P” value in data set [4] is under 1e-05 s⁻¹. In addition, the “self-cleavage kobs at 10000 uM GlcN6P” value in data set [3] is under 1e-05 s⁻¹.
Take A36U G63C C67U: the “self-cleavage kobs at 160 uM GlcN6P” value in data set [1] was under 1e-05 s⁻¹. Besides, in data set [4], the “self-cleavage kobs at 640 uM GlcN6P” value was under 1e-05 s⁻¹. Moreover, in data set [2], the “self-cleavage kobs at 2500 uM GlcN6P” value was under 1e-05 s⁻¹.
G7U G9C G59C U69G: the “self-cleavage kobs at 160 uM GlcN6P” value in data set [1] was under 1e-05 s⁻¹. The “self-cleavage kobs at 640 uM GlcN6P” value in data set [4] is under 1e-05 s⁻¹.
Regarding G60A C68G, in data set [1], the “self-cleavage kobs at 160 uM GlcN6P” value worked out at 8.43e-05 ± 3.9e-05 s⁻¹. Also, in data set [4], the “self-cleavage kobs at 640 uM GlcN6P” value is 7.21e-05 ± 1.6e-05 s⁻¹. For the same variant, the “self-cleavage kobs at 2500 uM GlcN6P” value in data set [2] is 6.95e-05 ± 2.5e-05 s⁻¹.
For A12G A14U A15U, the “self-cleavage kobs at 160 uM GlcN6P” value in data set [1] stood at 4.38e-05 ± 2.1e-05 s⁻¹.
As for C34G U47A, in data set [1], the “self-cleavage kobs at 160 uM GlcN6P” value was under 1e-05 s⁻¹. Also, the “self-cleavage kobs at 640 uM GlcN6P” value in data set [4] is under 1e-05 s⁻¹. Moreover, the “self-cleavage kobs at 2500 uM GlcN6P” value in data set [2] is under 1e-05 s⁻¹.
In the case of U30G U54G U56G, the “self-cleavage kobs at 160 uM GlcN6P” value in data set [1] was 0.00021 ± 5.7e-05 s⁻¹. The “self-cleavage kobs at 640 uM GlcN6P” value in data set [4] stood at 0.000994 ± 0.00019 s⁻¹. Also, the “self-cleavage kobs at 2500 uM GlcN6P” value in data set [2] turned out to be 0.00255 ± 0.00053 s⁻¹.
Consider A6G G38A G43U A48U A52C U69G, for which the “self-cleavage kobs at 160 uM GlcN6P” value in data set [1] was under 1e-05 s⁻¹. The “self-cleavage kobs at 2500 uM GlcN6P” value in data set [2] was under 1e-05 s⁻¹.
G38U A42U: the “self-cleavage kobs at 160 uM GlcN6P” value in data set [1] is under 1e-05 s⁻¹. Moreover, the “self-cleavage kobs at 640 uM GlcN6P” value in data set [4] is under 1e-05 s⁻¹. The “self-cleavage kobs at 10000 uM GlcN6P” value in data set [3] was under 1e-05 s⁻¹.
In the case of G35U G41A A48G C58G, in data set [1], the “self-cleavage kobs at 160 uM GlcN6P” value is under 1e-05 s⁻¹.
On the same count and under the same terms, for A6C A15U C16U the value was under 1e-05 s⁻¹.
G37C A39G G44A: the “self-cleavage kobs at 160 uM GlcN6P” value in data set [1] is under 1e-05 s⁻¹. Further, the “self-cleavage kobs at 640 uM GlcN6P” value in data set [4] was under 1e-05 s⁻¹.
With C8U G32A U45A U56C, in data set [1], the “self-cleavage kobs at 160 uM GlcN6P” value is under 1e-05 s⁻¹. Also, the “self-cleavage kobs at 640 uM GlcN6P” value in data set [4] is under 1e-05 s⁻¹. The “self-cleavage kobs at 2500 uM GlcN6P” value in data set [2] was under 1e-05 s⁻¹. For the same variant, in data set [3], the “self-cleavage kobs at 10000 uM GlcN6P” value was under 1e-05 s⁻¹.
For G38C U54G, in data set [1], the “self-cleavage kobs at 160 uM GlcN6P” value is under 1e-05 s⁻¹. Moreover, the “self-cleavage kobs at 640 uM GlcN6P” value in data set [4] was under 1e-05 s⁻¹. For the same variant, in data set [3], the “self-cleavage kobs at 10000 uM GlcN6P” value was under 1e-05 s⁻¹.
For G60A C61U, the “self-cleavage kobs at 160 uM GlcN6P” value in data set [1] was under 1e-05 s⁻¹. Also, the “self-cleavage kobs at 640 uM GlcN6P” value in data set [4] is under 1e-05 s⁻¹. For the same variant, in data set [2], the “self-cleavage kobs at 2500 uM GlcN6P” value was under 1e-05 s⁻¹. The “self-cleavage kobs at 10000 uM GlcN6P” value in data set [3] is under 1e-05 s⁻¹.
For the variant G35A U55C C70A, the “self-cleavage kobs at 160 uM GlcN6P” value in data set [1] is under 1e-05 s⁻¹. In addition, the “self-cleavage kobs at 640 uM GlcN6P” value in data set [4] is under 1e-05 s⁻¹.
Regarding G43C U55G U56G C67G, in data set [1], the “self-cleavage kobs at 160 uM GlcN6P” value is under 1e-05 s⁻¹.
G9A G38A G51A: the “self-cleavage kobs at 160 uM GlcN6P” value in data set [1] is under 1e-05 s⁻¹. In addition, in data set [4], the “self-cleavage kobs at 640 uM GlcN6P” value was under 1e-05 s⁻¹. In addition, the “self-cleavage kobs at 2500 uM GlcN6P” value in data set [2] was under 1e-05 s⁻¹.
Take G62U C68G: the “self-cleavage kobs at 160 uM GlcN6P” value in data set [1] was under 1e-05 s⁻¹. In addition, the “self-cleavage kobs at 640 uM GlcN6P” value in data set [4] was under 1e-05 s⁻¹. Further, the “self-cleavage kobs at 10000 uM GlcN6P” value in data set [3] is under 1e-05 s⁻¹.
G29C U56G G66C: in data set [1], the “self-cleavage kobs at 160 uM GlcN6P” value is under 1e-05 s⁻¹. For the same variant, in data set [4], the “self-cleavage kobs at 640 uM GlcN6P” value was under 1e-05 s⁻¹.
